Key:
[1] = biological target: T1, 26mer peptide of γ-gliadin
T1 chain: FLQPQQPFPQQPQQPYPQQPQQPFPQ

[2] = biological target: T2, 33mer peptide of α-gliadin
T2 chain: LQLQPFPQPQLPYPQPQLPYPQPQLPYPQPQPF

[3] = biological target: T3, B08-E2E7
T3 chain: PQQPIPQQPQPYPQQ

[4] = biological target: DQ2.5-glia-α1a
[5] = biological target: DQ2.5-glia-ω1
[6] = biological target: T4, R11-E4E7
T4 chain: QPFPQQPEQIIPQQP

[7] = biological target: T5, W02-E07
T5 chain: LQPFPQPQLPYPQPQ

[8] = biological target: T6, W03-E07
T6 chain: QPFPQPQQPFPWQP

[9] = biological target: peptides containing PQL
[10] = biological target: peptides containing PQQ

B1: Kuma030 (protein)
chain: AAPTAYTPLDVAQAYQFPEGLDGQGQCIAIIELGGGYDEASLAQYFASLGVPAPQVVSVSVDGASNQPTGDPEGPDGEVTLDIEVAGALAPGAKFAVYFAPDTTAGFLDAITTAIHDPTLKPSVVSISWSGPEDSWTSAAIAAMNRAFLDAAALGVTVLAAAGDQGSTSGEQDGLYHVHFPAASPYVLACGGTRLVASGGRIAQETVWNQGPDGGATGGGVSRIFPLPAWQEHANVPPSANPGASSGRGVPDLAGNADPQTGYEVVIDGEATVTGGTSAVAPLFAALVARINQKLGKAVGYLNPTLYQLPADVFHDITEGNNDIANRAQIYQAGPGWDPCTGLGSPIGVRLLQALLPSASQPQPGSTENLYFQSGALEHHHHHH
- appearance of peptide breakdown products over time [1]: In both cases, Kuma030 was the dominant enzyme tested
- appearance of peptide breakdown products over time [2]: In both cases, Kuma030 was the dominant enzyme tested
- cleavage products by mass spectroscopy [2]: Kuma030 cleaved each peptide after the PQ dipeptide motif
- cleavage products by mass spectroscopy [3]: Kuma030 cleaved each peptide after the PQ dipeptide motif
- Kcat [4]: 17.4 s⁻¹
- Km [4]: 1.9 mM
- Vmax [4]: 1.74e-06 M/s
- kcat/Km [4]: 9030 M⁻¹ s⁻¹
- Kcat [5]: 27.3 s⁻¹
- Km [5]: 8.4 mM
- Vmax [5]: 2.73e-06 M/s
- kcat/Km [5]: 3270 M⁻¹ s⁻¹
- cleavage products by mass spectroscopy [6]: Kuma030 cleaved each peptide after the PQ dipeptide motif
- cleavage products by mass spectroscopy [7]: Kuma030 cleaved each peptide after the PQ dipeptide motif
- cleavage products by mass spectroscopy [8]: Kuma030 cleaved each peptide after the PQ dipeptide motif
- Activity Improvement over Background (Kuma021) [9]: 1.2-2x (PQL)
- activity relative to Kuma010 [9]: 11-fold more active against peptides containing PQL
- activity relative to Kuma040 [9]: Kuma030 is 2-fold more active on PQQ, and 2-fold less active on PQL, than Kuma040
- Activity Improvement over Background (Kuma021) [10]: 1.2-2x (PQQ)
- activity relative to Kuma010 [10]: 44-fold more active against peptides containing PQQ
- activity relative to Kuma040 [10]: Kuma030 is 2-fold more active on PQQ, and 2-fold less active on PQL, than Kuma040

Source: patent publication US20180142226
